Tests used:
Y50A = biological target: T1, Y50A (human, UniProt Q9Y286); experiment: flow cytometry on HEK-293T cells expressing the mutant; mean % of wild-type signal (range of duplicates)
T1 construct: clone of the siglec-7 mutation library; also called Siglec-7 Y50A

K104A = biological target: T2, K104A (human, UniProt Q9Y286); experiment: as above
T2 construct: clone of the siglec-7 mutation library; also called Siglec-7 K104A

S47A = biological target: T3, S47A (human, UniProt Q9Y286); experiment: as above
T3 construct: clone of the siglec-7 mutation library; also called Siglec-7 S47A
T3 sequence (Q9Y286 19-467 S47A limits assumed): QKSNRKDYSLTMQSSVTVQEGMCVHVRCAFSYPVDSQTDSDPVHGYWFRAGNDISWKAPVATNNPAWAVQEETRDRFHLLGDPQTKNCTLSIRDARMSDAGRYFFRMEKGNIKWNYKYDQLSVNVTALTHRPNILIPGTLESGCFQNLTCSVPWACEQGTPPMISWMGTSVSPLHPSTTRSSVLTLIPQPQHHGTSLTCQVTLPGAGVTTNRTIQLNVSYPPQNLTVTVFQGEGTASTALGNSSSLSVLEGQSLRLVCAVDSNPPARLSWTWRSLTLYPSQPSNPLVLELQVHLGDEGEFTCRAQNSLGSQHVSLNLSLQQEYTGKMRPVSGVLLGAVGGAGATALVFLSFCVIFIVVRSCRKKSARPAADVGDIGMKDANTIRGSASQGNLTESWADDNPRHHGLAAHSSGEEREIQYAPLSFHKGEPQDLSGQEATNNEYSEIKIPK

F48A = biological target: T4, F48A (human, UniProt Q9Y286); experiment: as above
T4 construct: clone of the siglec-7 mutation library; also called Siglec-7 F48A
T4 sequence (Q9Y286 19-467 F48A limits assumed): as the sequence (Q9Y286 19-467 S47A limits assumed) above, with A29S, F30A counted along it

N81A = biological target: T5, N81A (human, UniProt Q9Y286); experiment: as above
T5 construct: clone of the siglec-7 mutation library; also called Siglec-7 N81A
T5 sequence (Q9Y286 19-467 N81A limits assumed): as the sequence (Q9Y286 19-467 S47A limits assumed) above, with A29S, N63A counted along it

R45A = biological target: T6, R45A (human, UniProt Q9Y286); experiment: as above
T6 construct: clone of the siglec-7 mutation library; also called Siglec-7 R45A
T6 sequence (Q9Y286 19-467 R45A limits assumed): as the sequence (Q9Y286 19-467 S47A limits assumed) above, with R27A, A29S counted along it

T103A = biological target: T7, T103A (human, UniProt Q9Y286); experiment: as above
T7 construct: clone of the siglec-7 mutation library; also called Siglec-7 T103A
T7 sequence (Q9Y286 19-467 T103A limits assumed): as the sequence (Q9Y286 19-467 S47A limits assumed) above, with A29S, T85A counted along it

M30A = biological target: T8, M30A (human, UniProt Q9Y286); experiment: as above
T8 construct: clone of the siglec-7 mutation library; also called Siglec-7 M30A
T8 sequence (Q9Y286 19-467 M30A limits assumed): as the sequence (Q9Y286 19-467 S47A limits assumed) above, with M12A, A29S counted along it

I72A = biological target: T9, I72A (human, UniProt Q9Y286); experiment: as above
T9 construct: clone of the siglec-7 mutation library; also called Siglec-7 I72A
T9 sequence (Q9Y286 19-467 I72A limits assumed): as the sequence (Q9Y286 19-467 S47A limits assumed) above, with A29S, I54A counted along it

M185A = biological target: T10, M185A (human, UniProt Q9Y286); experiment: as above
T10 construct: clone of the siglec-7 mutation library; also called Siglec-7 M185A
T10 sequence (Q9Y286 19-467 M185A limits assumed): as the sequence (Q9Y286 19-467 S47A limits assumed) above, with A29S, M167A counted along it

V44A = biological target: T11, V44A (human, UniProt Q9Y286); experiment: as above
T11 construct: clone of the siglec-7 mutation library; also called Siglec-7 V44A
T11 sequence (Q9Y286 19-467 V44A limits assumed): as the sequence (Q9Y286 19-467 S47A limits assumed) above, with V26A, A29S counted along it

W74A = biological target: T12, W74A (human, UniProt Q9Y286); experiment: as above
T12 construct: clone of the siglec-7 mutation library; also called Siglec-7 W74A
T12 sequence (Q9Y286 19-467 W74A limits assumed): as the sequence (Q9Y286 19-467 S47A limits assumed) above, with A29S, W56A counted along it

[1] = biological target: T13, Siglec-7-Fc (plate immobilized) (human, UniProt Q9Y286 19-357, limits assumed); experiment: RBC solid adhesion assay, plate-coated Siglec-7-Fc, antibody 0.5 or 1.0 ug/ml; % of RBC binding without antibody
T13 construct: also called Siglec-7-Fc protein; immobilized Siglec-7; not shown: Fc part
T13 sequence (Q9Y286 19-357 limits assumed): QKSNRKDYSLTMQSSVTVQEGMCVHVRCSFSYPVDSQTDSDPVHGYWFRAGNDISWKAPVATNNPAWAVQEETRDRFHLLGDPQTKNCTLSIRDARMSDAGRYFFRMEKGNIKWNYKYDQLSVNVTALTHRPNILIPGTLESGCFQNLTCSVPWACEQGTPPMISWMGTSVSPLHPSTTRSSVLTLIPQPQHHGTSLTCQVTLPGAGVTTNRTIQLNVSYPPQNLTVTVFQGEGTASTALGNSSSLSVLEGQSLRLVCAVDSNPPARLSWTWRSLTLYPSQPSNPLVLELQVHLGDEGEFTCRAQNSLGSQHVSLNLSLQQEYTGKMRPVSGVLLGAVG
In short: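 Plates coated overnight at RT with 5 μg/ml Siglec-7-Fc and blocked in PBS with BSA and 1 mM CaCl₂. Antibody (0.5 or 1.0 μg/ml) bound 1 h at RT, then RBCs (3.0×10⁶ cells/ml) added for 1 h at RT. Bound RBCs lysed and detected by peroxidase at 450 nm, expressed as % of binding without antibody.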

T2 sequence (Q9Y286 19-467 K104A limits assumed): as the sequence (Q9Y286 19-467 S47A limits assumed) above, with A29S, K86A counted along it
T1 sequence (Q9Y286 19-467 Y50A limits assumed): as the sequence (Q9Y286 19-467 S47A limits assumed) above, with A29S, Y32A counted along it

- Binding Reactivity (% WT) (Y50A): 108 % WT
- Binding Reactivity (% WT) (K104A): 13.6 % WT
- Binding Reactivity (% WT) (S47A): 81.7 % WT
- Binding Reactivity (% WT) (F48A): 159 % WT
- Binding Reactivity (% WT) (N81A): 153 % WT
- Binding Reactivity (% WT) (R45A): 37.3 % WT
- Binding Reactivity (% WT) (T103A): 96.3 % WT
- Binding Reactivity (% WT) (M30A): 89.9 % WT
- Binding Reactivity (% WT) (I72A): 130 % WT
- Binding Reactivity (% WT) (M185A): 29.1 % WT
- Binding Reactivity (% WT) (V44A): 93.9 % WT
- Binding Reactivity (% WT) (W74A): 101 % WT
- Percent RBC Binding to Siglec-7 [1]: 88.4%
B1: anti-Siglec-7 antibody 10B5 (antibody, V domains shown)
VH: QVHLQQSGPELVKPGASVKISCKASGYAFTNCWMNWVRQRPGKGLDWIGRIFPGNGHTNYSGKFKDKATLTEDKSSSTAYMQLSSLTSEDSAVYFCARDYSDYYFDYWGQGTTLTVSS
VL: DVQMTQTTSSLSASLGDRVTISCRASQDINTYLNWYQQKPDGTVKLLIYYTSRLHSGVPSRFSGSGSGTDYSLTISNLEQEDIATYFCQQGNTLPWTFGGGTKLEIK
notes: that light chain holds several Z and differs in its CDRs from S7-10B5.1 / 10B5L1; also called S7-10B5; mAb S7-10B5

— patent publication US20200277374A1 (Alector, published 2020)
